Non-standard residues stand in square brackets, D forms with d. No end group written: not given here. Hyp = O=C(O)[C@@H]1C[C@@H](O)CN1
What was measured:
Assay in all cases: cell-based or functional assay
[1] = target: CysLTR1 (cysteinyl leukotriene receptor CysLT1), expressed in the CYSLTR1/HEK293 cell line (UniProt Q9Y271)
[2] = target: T1, CysLTR1 (cysteinyl leukotriene receptor CysLT1), expressed in the CYSLTR1/HEK293 cell line (UniProt Q9Y271 1-337, limits assumed)
T1 sequence (looked up): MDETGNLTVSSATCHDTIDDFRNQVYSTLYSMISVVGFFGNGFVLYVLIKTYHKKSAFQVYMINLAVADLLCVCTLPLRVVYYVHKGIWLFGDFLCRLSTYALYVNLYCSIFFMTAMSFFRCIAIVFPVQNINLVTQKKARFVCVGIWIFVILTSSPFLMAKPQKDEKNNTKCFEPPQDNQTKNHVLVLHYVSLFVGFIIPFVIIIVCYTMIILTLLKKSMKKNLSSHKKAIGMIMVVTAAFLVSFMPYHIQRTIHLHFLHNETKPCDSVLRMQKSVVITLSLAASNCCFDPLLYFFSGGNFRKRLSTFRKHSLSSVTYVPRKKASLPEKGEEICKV

[3] = target: T1, CysLTR1 (cysteinyl leukotriene receptor …); remark: listed apart in the source
[4] = target: T1, CysLTR1 (cysteinyl leukotriene receptor …); remark: listed apart in the source

| Molecule | IC50 (nM), in vitro CysLTR1 FLIPR antagonist test (Fluo-4 calcium assay, CYSLTR1/HEK293 cells) [1] | IC50 (nM), in vitro CysLTR1 FLIPR antagonist test (Fluo-4 calcium assay, CYSLTR1/HEK293 cells) [2] | affinity to CysLTR1 relative to Compound A, derived from the FLIPR antagonist IC50s [3] | IC50 (nM), in vitro CysLTR1 FLIPR antagonist test (Fluo-4 calcium assay, CYSLTR1/HEK293 cells), repeat [4] |
| --- | --- | --- | --- | --- |
| Montelukast-Ala-Lys-Pro-Ser-Tyr-Hyp-Thr-Tyr-Hyp-Lys (montelukast covalently bonded at the N-terminus) (peptide) | 99.5 nM | – | – | – |
| {montelukast styrene}-AKPSY[Hyp][Hyp]TYK | – | 475 nM | – | – |
| montelukast-AKPSY[Hyp][Hyp]TYK | – | 90.5 nM | 5 fold against Compound A | 140 nM |

Reference: patent US20210309696A1 (ENLITISA SHANGHAI PHARMACEUTICAL, published 2021)
